Data from paper doi:10.1101/2023.06.08.544223.

Biological target: SPARDA complex (heterodimer of NbaAgo and DREN-APAZ), wild type (Novosphingopyxis baekryungensis)
Experiment: SEC

- stoichiometry N: 2
Substance: SPARDA complex (heterodimer of NbaAgo and DREN-APAZ), wild type
